# Tests used:
# [1] = molecular target: HA-RNF25 mutant lacking the Proline-Rich domain (human); test: co-IP
# [2] = molecular target: HA-RNF25 mutant lacking the RING+L+U5BR domains (human); test: co-IP
# Chain of REV7 (Q9UI95 whole entry): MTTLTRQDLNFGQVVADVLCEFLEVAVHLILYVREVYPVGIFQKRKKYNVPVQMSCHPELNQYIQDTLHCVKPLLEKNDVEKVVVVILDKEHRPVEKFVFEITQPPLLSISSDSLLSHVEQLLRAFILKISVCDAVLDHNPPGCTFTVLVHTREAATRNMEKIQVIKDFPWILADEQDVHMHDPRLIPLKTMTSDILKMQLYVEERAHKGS
substance,measurement,setting,value
REV7 (from UniProt Q9UI95 1-211) (natural protein),fold reduction of co-precipitated REV7 against wild-type HA-RNF25,[1],3.13 fold
same,fold reduction of co-precipitated REV7 against wild-type HA-RNF25,[2],2.33 fold

# Reference: PMC11741350
